Data published in US20220204640A1 (Genentech, published 2022).

Assays:
[1] = biological target: T1, TAT211 polypeptide on the surface of cells (human, UniProt O95436 1-690); assay: Scatchard analysis on P828 cells expressing TAT211; P828 cells
T1 construct: Expressed endogenously (OVCAR-3, OVCAR4, Igrov1, P828, P701sc20) or recombinantly (293/TAT211) on the cell surface
T1 sequence: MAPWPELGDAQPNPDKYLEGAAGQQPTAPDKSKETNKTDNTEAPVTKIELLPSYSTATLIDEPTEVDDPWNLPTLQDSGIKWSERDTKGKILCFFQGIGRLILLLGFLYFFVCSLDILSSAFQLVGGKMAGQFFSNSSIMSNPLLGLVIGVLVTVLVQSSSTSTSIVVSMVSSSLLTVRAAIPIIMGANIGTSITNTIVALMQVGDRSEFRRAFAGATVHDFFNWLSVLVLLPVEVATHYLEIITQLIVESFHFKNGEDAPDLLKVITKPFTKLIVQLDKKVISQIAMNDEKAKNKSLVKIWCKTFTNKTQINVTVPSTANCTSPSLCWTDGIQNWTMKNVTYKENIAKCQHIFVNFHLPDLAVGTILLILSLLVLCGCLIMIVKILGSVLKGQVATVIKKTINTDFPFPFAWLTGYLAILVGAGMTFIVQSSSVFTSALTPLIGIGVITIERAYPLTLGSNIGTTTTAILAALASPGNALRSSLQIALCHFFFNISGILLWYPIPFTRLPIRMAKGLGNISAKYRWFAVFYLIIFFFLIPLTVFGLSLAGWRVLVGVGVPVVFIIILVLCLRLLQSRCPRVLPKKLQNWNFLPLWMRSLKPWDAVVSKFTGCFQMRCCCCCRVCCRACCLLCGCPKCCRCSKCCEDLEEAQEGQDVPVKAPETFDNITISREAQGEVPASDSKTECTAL

[2] = biological target: T1, TAT211 polypeptide on the surface of …; assay: Scatchard analysis on Igrov1 cells expressing TAT211; Igrov1 cells
[3] = biological target: T1, TAT211 polypeptide on the surface of …; assay: Scatchard analysis on OVCAR4 cells expressing TAT211; OVCAR4 cells
[4] = biological target: T1, TAT211 polypeptide on the surface of …; assay: Scatchard analysis on P701sc20 cells expressing TAT211; P701sc20 cells
[5] = biological target: T1, TAT211 polypeptide on the surface of …; assay: Scatchard analysis on cells, IgG
[6] = biological target: T2, CHO derived TAT211 extracellular domain (glycosylated, immunoadhesin / Fc fusion) (human, UniProt O95436 234-362, glycosylated (CHO)); assay: surface plasmon resonance for the Fab, compared with mu10H1
T2 construct: not shown: Fc part of the immunoadhesin
T2 sequence: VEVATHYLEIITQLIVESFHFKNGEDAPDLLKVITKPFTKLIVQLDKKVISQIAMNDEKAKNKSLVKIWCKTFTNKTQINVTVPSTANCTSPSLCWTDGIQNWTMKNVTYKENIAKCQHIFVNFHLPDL

[7] = biological target: T2, CHO derived TAT211 extracellular domain …; assay: surface plasmon resonance (Biacore), TAT211 extracellular domain immobilized
Procedure: TAT211 extracellular domain (glycosylated) was immobilized (approximately 100-400 RU, in 10 mM Sodium Acetate pH 4.8 on a CM5 sensor chip) and the 10H1 antibody variant served as the analyte (injected at a flow rate of 30 μL/min, using a 2-fold serial dilution of 4 to 1000 nM in PBST). Each sample was analyzed with 4-minute association and 10-minute disassociation. After each injection the chip was regenerated using 10 mM Glycine pH 1.7.

B1: murine monoclonal antibody 10H1 (antibody, V domains shown)
VH: EVMLVESGGGLVRPGGSLKVSCAASGFSFSDFAMSWVRRTPDKRLEWVATIGRVASHTYYPDSMKGRFTISRDNAKNTLYLQMNSLRSDDTAIYYCVRHRGFDVGHFDFWGQGTLLTVSA
VL: DILMTQTPLSLPVSLGDQASISCRSSETLVHSNGNTYLEWYLQKLGQPPKLLIYRVSNRFSGVPDRFSGSGSGTDFTLKISRLEAEDLGVYYCFQGSHNPLTFGAGTKVEIKR
notes: Murine hybridoma IgG; also called mu10H1; murine 10H1
Binder B1 has a Kd [1] of 36 nM, a Kd [2] of 61 nM and a Kd [3] of 37 nM. It also gave a Kd [4] of 59 nM.

B2: humanized anti-TAT211 antibody 10H1.11.4B (IgG) (antibody, V domains shown)
VH: EVQLVESGGGLVQPGGSLRLSCAASGFSFSDFAMSWVRQAPGKGLEWVATIGRVAFHTYYPDSMKGRFTISRDNSKNTLYLQMNSLRAEDTAVYYCARHRGFDVGHFDFWGQGTLVTVSS
VL: DIQMTQSPSSLSASVGDRVTITCRSSETLVHSSGNTYLEWYQQKPGKAPKLLIYRVSNRFSGVPSRFSGSGSGTDFTLTISSLQPEDFATYYCFQGSFNPLTFGQGTKVEIKR
B2: binds [5].

B3: 10H1-graft as a Fab (Fab, V domains shown)
VH: EVQLVESGGGLVQPGGSLRLSCAASGFSFSDFAMSWVRQAPGKGLEWVATIGRVASHTYYPDSMKGRFTISRDNSKNTLYLQMNSLRAEDTAVYYCVRHRGFDVGHFDFWGQGTLVTVSS
VL: DIQMTQSPSSLSASVGDRVTITCRSSETLVHSNGNTYLEWYQQKPGKAPKLLIYRVSNRFSGVPSRFSGSGSGTDFTLTISSLQPEDFATYYCFQGSHNPLTFGQGTKVEIKR
notes: Fab expressed in E. coli from the phage display vector; also called 10H1 anti-TAT211 grafted humanized antibody
In the case of B3, the “fold loss of affinity relative to the mu10H1 hybridoma antibody” value [6] is reported as ~2 fold and the Kd [7] is reported as 74 nM.
